Data taken from the DeepSol protein solubility set.

Test: soluble on expression in E. coli; label from the status in PepcDB or PDB records

Sequence | soluble on expression in E. coli
MGHHHHHHSHMGIKYHEESIHAAYVHVIENSRHYIYIENQFFISCADDKVVFNKIGDAIAQRILKAHRENQKYRVYVVIPLLPGFEGDISTGGGNALQAIMHFNYRTMCRGENSILGQLKAELGNQWINYISFCGLRTHAE | soluble
MGHHHHHHSHMGKGTFVYRTTITSPHEEVWAFFSSPTNLQTLTKIPKVVLDSTSETTQGSEIEMKLFVLGIPFQWKAYIEAYNPPFSFTDVAIKMPFPIVYWRHTHRFTTEGERTVMIDEIQYEIKMANKLVIFFLRRMFRARESALHRYFQS | soluble
MGHHHHHHSHMHGECVKEEKDFLKKEIVDDTKVKEEPPINHPVGCKRKLAMSRCETCGTEEAKYRCPRCMRYSCSLPCVKKHKAELTCNGVRDKTAYISIQQFTEMNLLSDYRFLEDVARTADHISRDAFLKRPISNKYMYFMKNRARRQGINLKLLPNGFTKRKENSTFFDKKKQQFCWHVKLQFPQSQAEYIEKRVPDDKTINEILKPYIDPEKSDPVIRQRLKAYIRSQTGVQILMKIEYMQQNLVRYYELDPYKSLLDNLRNKVIIEYPTLHVVLKGSNNDMKVLHQVKSESTKNVGNEN | not soluble
MGHHHHHHSHMIKQRTLKRIVQATGVGLHTGKKVTLTLRPAPANTGVIYRRTDLNPPVDFPADAKSVRDTMLCTCLVNEHDVRISTVEHLNAALAGLGIDNIVIEVNAPEIPIMDGSAAPFVYLLLDAGIDELNCAKKFVRIKETVRVEDGDKWAEFKPYNGFSLDFTIDFNHPAIDSSNQRYAMNFSADAFMRQISRARTFGFMRDIEYLQSRGLCLGGSFDCAIVVDDYRVLNEDGLRFEDEFVRHKMLDAIGDLFMCGHNIIGAFTAYKSGHALNNKLLQAVLAKQEAWEYVTFQDDAELPLAFKAPSAVLA | not soluble
MGHHHHHHSHMKDLTDMDKNSPEAWCAAGNCFSLQREHDIAIKFFQRAIQVDPNYAYAYTLLGHEFVLTEELDKALACFRNAIRVNPRHYNAWYGLGMIYYKQEKFSLAEMHFQKALDINPQSSVLLCH | not soluble
MGHHHHHHSHMKTLEAHKDPHKEVVRSAEEAASVLATSISPEQCIKVLCPIIQTADYPINLAAIKMQTKVIERVSKETLNLLLPEIMPGLIQGYDNSESSVRKACVFCLVAVHAVIGDELKPHLSQLTGSKMKLLNLYIKRAQTGSGGADPTTDVSGQS | not soluble
MGHHHHHHSHMLRGMARMGGQRRLKALAAPRFWPILRKEYKWAVKPRPGPHPAEKSLPLLLIVRNVLGYAQTAREARKLISEGHFRVDGVVRKDYKFPVGFMDVIEVVDTGEKFRMLPYPVKFFKLHPIPEEEGDLKPVRIENKTTVKGGHVQLNLHDGRNILVRVKDPRNPVEDVYRTMDTLLITVPGQEIKGHIKFGEGAIAIIVGGRNVGRVGVVKSVQKGWGRKRTLVTLEDASGNLFQTSLDYVFVIGLDRPVISLPEGAWK | soluble
MGHHHHHHSHMNDSDSTPPKKKMRKTENGMYACDLCDKIFQKSSSLLRHKYEHTGKRPHECGICKKAFKHKHHLIEHMRLHSGEKPYQCDKCGKRFSHSGSYSQHMNHRYSYCKREAEERDSTEQEEAGPEILSNEHVGARASP | soluble
MGHHHHHHSHMNNQKVVAVLLQECRALLPSELRTLIQEAKEMKWPFVPEKWQYKQAVGPEDKTNLKDVIGAGLQQLLASLRASILARDCAAAAAIVFLVDRFLYGLDVSGKLLQVAKGLHKLQPATPIAPQVVIRQARISVNSGSHPAKHSM | not soluble
MGHHHHHHSHMPKHPSQSTVCQKGTPNSASKTKDKVNKRNERGETRLHRAAIRGDARRIKELISEGADVNVKDFAGWTALHEACNRGYYDVAKQLLAAGAEVNTKGLDDDTPLHDAANNGHYKVVKLLLRYGGNPQQSNRKGETPLKVANSPTMVNLLLGKGTYTSSEESSTESSEE | soluble
MGHHHHHHSHMQQAPVVLSTLDKLLNWGRSNSLWPLTYGLACCAIEMMATGGSRFDFDRFGTIFRASPRQSDVMIIAGTLTKKHAEFMRRLYDQMPEPKWVISMGSCANTGGMFNTYATVQGADRVVPVDIYLPGCAPRPETLQYALMVLQDKIRRSKAIKQDAPKRLV | not soluble
MGHHHHHHSHMRGRIYLEPPTMRKKRLLDRKVLLKSDSPTGDVLLDETLKHIKATEPTETVQTWIELLTGETWNPFKLQYQLRNVRERIAKNLVEKGILTTEKQNFLLFDMTTHPVTNTTEKQRLVKKLQDSVLERWVNDPQRMDKRTLALLVLAHSSDVLENVFSSLTDDKYDVAMNRAKDLVELDPEVEGTKPSATEMIWAVLAAFNKS | not soluble
